Assay results from the supplement of paper PMC10567573.

B1: RSPH3 (parent)
chain: LELQRQREARKRALARKQAQEQLR

Variants of: B1
Assay: protein stability index of a GFP-peptide fusion (GPS, HEK-293T) (PSI 1-6); higher = more stable
Conditions: c terminus: a fixed tail appended
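Note: lentivirally expressed fusions sorted by FACS into six bins by GFP to DsRed ratio, PSI derived from sequencing read proportions per bin multiplied by bin number.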

Protein stability index: each site, then its substitutions
A9: R 4.11 | T 3.31 | V 3.71 | P 4 | M 3.84 | E 3.85 | G 4.04 | C 4.05 | Y 3.71 | K 3.68 | H 4.07 | W 2.86 | L 3.47 | S 4.01 | D 3.63 | I 3.39 | F 2.73 | N 3.45 | Q 3.32
R12: H 3.71 | G 4.23 | V 3.81 | E 4.71 | K 3.97 | Y 3.77 | L 3.22 | I 4.21 | D 4.15 | C 3.9 | A 4.23 | N 4.45 | S 3.81 | M 4.18 | F 2.82 | P 4.25 | T 3.79 | Q 4.33 | W 3.21
E8: G 3.66 | F 3.24 | W 3 | Q 3.71 | D 3.81 | K 3.95 | P 3.67 | L 2.98 | S 3.62 | H 3.83 | N 3.44 | A 3.99 | Y 3.46 | M 3.43 | I 2.38 | C 3.64 | R 4.26 | T 4.06 | V 3.39
R10: K 3.07 | G 4.26 | D 4.38 | F 3.52 | W 3.53 | V 3.38 | M 3.76 | A 4.57 | E 4.08 | T 3.92 | L 3.62 | S 4.2 | H 3.79 | I 3.22 | P 4.3 | N 4.28 | C 3.43 | Y 3.17 | Q 4.43
L14: V 4.13 | H 4.32 | W 2.65 | F 3.74 | P 4.39 | S 4.42 | I 3.67 | R 4.4 | Y 3.22 | K 3.46 | G 4.75 | M 3.32 | N 4.04 | C 3.74 | E 4.35 | D 4.66 | T 4.19 | Q 4.53 | A 4.46
K11: W 2.92 | S 4.11 | R 3.78 | M 3.5 | E 4.35 | F 3.46 | I 3.27 | N 3.8 | V 2.74 | P 3.82 | T 3.46 | H 4.44 | L 3.82 | C 2.94 | G 4.44 | Q 4.35 | Y 3.07 | D 4.51 | A 3.84
R7: Q 4.01 | G 4.52 | I 3.25 | D 4.49 | H 4.29 | M 3.52 | P 3.71 | K 3.56 | V 4.02 | F 4.1 | E 4.31 | Y 3.85 | W 3.46 | S 4.36 | L 4.2 | T 4.43 | N 4.08 | C 3.87
A13: R 4.18 | H 4.06 | M 3.29 | W 3.73 | L 3.35 | E 4.5 | V 3.78 | Q 4.45 | T 3.85 | F 3.39 | G 3.33 | Y 3.49 | C 3.24 | S 3.77 | N 4.25 | P 4.14 | I 3.76 | D 4.07 | K 3.36
A15: K 3.57 | D 3.94 | P 4.2 | L 4.05 | C 3.42 | E 4.31 | G 4.12 | R 3.15 | N 4.32 | I 3.15 | Q 2.39 | S 4.04 | F 3.56 | M 2.79 | H 3.96 | V 3.69
